Positions count from the first letter of the chain named.
T1: Recombinant human CXCL16 (rhCXCL16) protein (human, UniProt Q9H2A7 30-118, limits assumed)
T1 construct: Bought recombinant protein (976-CX, R&D systems); also called CXCL16 antigen; 976-CX (R&D systems)
T1 sequence: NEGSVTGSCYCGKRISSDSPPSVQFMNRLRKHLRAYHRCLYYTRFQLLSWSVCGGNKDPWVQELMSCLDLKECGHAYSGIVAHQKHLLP

T2: Recombinant mouse CXCL16 antigen (mouse, UniProt Q8BSU2 27-114, limits assumed)
T2 construct: Bought recombinant protein (503-CX, R&D systems); also called 503-CX (R&D systems)
T2 sequence: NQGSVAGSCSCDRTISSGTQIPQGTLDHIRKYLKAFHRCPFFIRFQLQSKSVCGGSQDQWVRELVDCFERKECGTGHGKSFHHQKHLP

B1: HC3LC3 (antibody, human IgG1, kappa, V domains shown)
VH: EVQLVESGGGLVQPGGSLKLSCAASGFTFSNAVMNWVRQAPGKGLEWVGRIRTKPNNYATFYADSVKGRFTFSRDDSKNTAYLQMNILKTEDTAMYYCTAWTTEGIYWGQGTTVTVSS
VL: DIQMTQSPSSLSASVGDRVTITCKSSQSLLYSGNQKNYLAWYQQKPGQSPKLLIYWASTRQSGVPDRFSGSGSGTDFTLTISSLQAEDFATYYCQQYYDTPWTFGGGTKVEIKR
notes: Humanized variant; human IgG1 / kappa constant domains
B2: HC3LC4 (antibody, human IgG1, kappa, V domains shown)
VH: B1 VH
VL: B1 VL with D66S, A86P, F89L, T91I, V110L, I112L
notes: as for B1
B3: HC1LC4 (antibody, human IgG1, kappa, V domains shown)
VH: QVQLVESGGGVVQPGGSLRLSCAASGFTFSNAVMNWVRQAPGKGLEWVARIRTKPNNYATFYADSVKGRFTFSRDNSKTMLYLQMNSLRAEDTAVYYCTAWTTEGIYWGQGTLVTVSS
VL: B1 VL with D66S, A86P, F89L, T91I, V110L, I112L
notes: as for B1
B4: HC4LC3 (antibody, human IgG1, kappa, V domains shown)
VH: B1 VH with Q13K, K19R, G49A, A81L, I87S, M95V
VL: B1 VL
notes: as for B1
B5: HC1LC3 (antibody, human IgG1, kappa, V domains shown)
VH: B3 VH
VL: B1 VL
notes: as for B1
B6: HC4LC4 (antibody, human IgG1, kappa, V domains shown)
VH: B1 VH with Q13K, K19R, G49A, A81L, I87S, M95V
VL: B1 VL with D66S, A86P, F89L, T91I, V110L, I112L
notes: as for B1
B7: Chimeric antibody HC0LC0 (antibody, V domains shown)
VH: AVQLVESGGGLVQPKESLKISCAASGFTFSNAVMNWVRQAPGKGLEWVARIRTKPNNYATFYADSVKGRFTFSRDDSKSMVYLQMDNLKTEDTAMYYCTAWTTEGIYWGQGTLVTVSS
VL: DIVMTQSPSSLAVSAGETVTINCKSSQSLLYSGNQKNYLAWYQQKPGQSPKLLIYWASTRQSGVPDRFIGSGSGTDFTLTISSVQAEDLAIYYCQQYYDTPWTFGGGTKLELKR
notes: also called CLS-A1HC0LC0; variant antibody
B8: HC1LC1 (antibody, human IgG1, kappa, V domains shown)
VH: B3 VH
VL: B7 VL with S9D, I69S, L89V, I91V, L110V, L112I
notes: as for B1
B9: HC2LC3 (antibody, human IgG1, kappa, V domains shown)
VH: B1 VH with E1A, L20I, P41S, F72I, I87S, T113L
VL: B1 VL
notes: as for B1
B10: HC2LC2 (antibody, human IgG1, kappa, V domains shown)
VH: B1 VH with E1A, L20I, P41S, F72I, I87S, T113L
VL: B7 VL with A15L, V19A, S49P, I69T, S73A, L110V, L112I
notes: as for B1
B11: HC1LC2 (antibody, human IgG1, kappa, V domains shown)
VH: B3 VH
VL: B7 VL with A15L, V19A, S49P, I69T, S73A, L110V, L112I
notes: as for B1
B12: HC3LC2 (antibody, human IgG1, kappa, V domains shown)
VH: B1 VH
VL: B7 VL with A15L, V19A, S49P, I69T, S73A, L110V, L112I
notes: as for B1
B13: HC2LC4 (antibody, human IgG1, kappa, V domains shown)
VH: B1 VH with E1A, L20I, P41S, F72I, I87S, T113L
VL: B1 VL with D66S, A86P, F89L, T91I, V110L, I112L
notes: as for B1
B14: HC4LC2 (antibody, human IgG1, kappa, V domains shown)
VH: B1 VH with Q13K, K19R, G49A, A81L, I87S, M95V
VL: B7 VL with A15L, V19A, S49P, I69T, S73A, L110V, L112I
notes: as for B1
B15: HC5LC1 (antibody, human IgG1, kappa, V domains shown)
VH: B1 VH with P41S, G49A, I87S, T113L
VL: B7 VL with S9D, I69S, L89V, I91V, L110V, L112I
notes: Humanized; human IgG1 / kappa constant domains; also called HCSLC1; humanized CXCL16 antibody HC5LC1
B16: HC1LC5 (antibody, human IgG1, kappa, V domains shown)
VH: B3 VH
VL: B7 VL with T18R, V19A, V84L, L89V
notes: as for B1
B17: HC3LC1 (antibody, human IgG1, kappa, V domains shown)
VH: B1 VH
VL: B7 VL with S9D, I69S, L89V, I91V, L110V, L112I
notes: as for B1
B18: HC2LC1 (antibody, human IgG1, kappa, V domains shown)
VH: B1 VH with E1A, L20I, P41S, F72I, I87S, T113L
VL: B7 VL with S9D, I69S, L89V, I91V, L110V, L112I
notes: as for B1
B19: HC4LC5 (antibody, human IgG1, kappa, V domains shown)
VH: B1 VH with Q13K, K19R, G49A, A81L, I87S, M95V
VL: B7 VL with T18R, V19A, V84L, L89V
notes: as for B1
B20: HC2LC5 (antibody, human IgG1, kappa, V domains shown)
VH: B1 VH with E1A, L20I, P41S, F72I, I87S, T113L
VL: B7 VL with T18R, V19A, V84L, L89V
notes: as for B1
B21: HC3LC5 (antibody, human IgG1, kappa, V domains shown)
VH: B1 VH
VL: B7 VL with T18R, V19A, V84L, L89V
notes: as for B1
B22: HC5LC3 (antibody, human IgG1, kappa, V domains shown)
VH: B1 VH with P41S, G49A, I87S, T113L
VL: B1 VL
notes: Humanized; human IgG1 / kappa constant domains; also called HCSLC3; humanized CXCL16 antibody HC5LC3
B23: HC5LC4 (antibody, human IgG1, kappa, V domains shown)
VH: B1 VH with P41S, G49A, I87S, T113L
VL: B1 VL with D66S, A86P, F89L, T91I, V110L, I112L
notes: as for B1
B24: HC4LC1 (antibody, human IgG1, kappa, V domains shown)
VH: B1 VH with Q13K, K19R, G49A, A81L, I87S, M95V
VL: B7 VL with S9D, I69S, L89V, I91V, L110V, L112I
notes: Humanized; human IgG1 / kappa constant domains; also called humanized CXCL16 antibody HC4LC1

Key:
[1] = molecular target: T1, Recombinant human CXCL16 (rhCXCL16) …; assay: BLI (ForteBio), antibody captured on biosensor, rhCXCL16 in solution
Experimental: (§1) The binding characteristics of 25 CXCL16 antibodies were analyzed using the bio-light interferometry (ForteBio). All antibodies were diluted in freshly prepared running buffer. Antibodies were immobilized onto the surface of a series of biosensors using the capture methods at 0.3 μg/mL. Recombinant human CXCL16 (rhCXCL16) protein (100 nM) was passed over the surface to generate a binding response for 10 minutes. Binding data for the antibody and antigen interactions were collected at 25° C. on the biosensors. Then, the running buffer was passed for 10 minutes to dissociate them. The association constant (kₐ) and the dissociation constant (kₐ) were observed, and the equilibrium binding constant (KD) was calculated. […] R2: The value indicating how well the fit and experimental data correlate; X²: The measure of error between the experimental data and fitted line.

[2] = molecular target: T1, Recombinant human CXCL16 (rhCXCL16) …; assay: BLI (ForteBio), antibody captured on biosensor, rhCXCL16 in solution, 25 C
Experimental: as §1

[3] = molecular target: T1, Recombinant human CXCL16 (rhCXCL16) …; assay: as above; remark: listed apart in the source
[4] = molecular target: T2, Recombinant mouse CXCL16 antigen; assay: ELISA, recombinant mouse CXCL16 immobilized on the plate, HRP-labeled anti-human IgG detection, OD 450 nm
Experimental: To evaluate the cross-reactivity with mouse CXCL16 antigen, the same ELISA experiment was performed with recombinant mouse CXCL16 antigen (503-CX, R&D systems). The mouse CXCL16 antigen was immobilized onto 96-well plates by incubation for 2 hours at room temperature. Non-specific binding sites were blocked by incubating with 1% BSA in PBS overnight at 4° C. After coating, the plates were washed with PBS. Humanized CXCL16 antibodies at various concentration (0.00 1˜10 nM) were incubated with the immobilized antigen for 2 hours at room temperature. After binding, the plates were washed, incubated with HRP-labeled anti-human IgG antibody (W4031, Promega, USA) for 0.5 hours, and developed using the substrate solution (DY008B, R&D systems). The binding affinity of humanized antibodies was similar to that of IgG antibody.

Binder	binding result [1]	further results
B1	no binding (tested: 100 nM rhCXCL16)	–
B2	no binding (tested: 100 nM rhCXCL16)	–
B3	no binding (tested: 100 nM rhCXCL16)	–
B4	no binding (tested: 100 nM rhCXCL16)	–
B5	no binding (tested: 100 nM rhCXCL16)	–
B6	no binding (tested: 100 nM rhCXCL16)	–
B7	–	Kd [2]: < 0.001 nM; koff [2]: < 1e-07 s⁻¹; Res@3.7 nM [3]: 0.13; binding result [4]: no binding (tested: 1500 ng/mL)
B8	no binding (tested: 100 nM rhCXCL16)	–
B9	no binding (tested: 100 nM rhCXCL16)	–
B10	no binding (tested: 100 nM rhCXCL16)	–
B11	no binding (tested: 100 nM rhCXCL16)	–
B12	no binding (tested: 100 nM rhCXCL16)	–
B13	no binding (tested: 100 nM rhCXCL16)	–
B14	no binding (tested: 100 nM rhCXCL16)	–
B15	–	Kd [2]: 3.26 nM; koff [2]: 5.97e-05 s⁻¹; kon [2]: 18300 M⁻¹ s⁻¹; Res@3.7 nM [3]: 0.08
B16	no binding (tested: 100 nM rhCXCL16)	–
B17	no binding (tested: 100 nM rhCXCL16)	–
B18	no binding (tested: 100 nM rhCXCL16)	–
B19	no binding (tested: 100 nM rhCXCL16)	–
B20	no binding (tested: 100 nM rhCXCL16)	–
B21	no binding (tested: 100 nM rhCXCL16)	–
B22	–	Kd [2]: 1.44 nM; koff [2]: 0.000635 s⁻¹; Res@3.7 nM [3]: 0.078
B23	no binding (tested: 100 nM rhCXCL16)	–
B24	–	Kd [2]: 1.09 nM; koff [2]: 1.9e-05 s⁻¹; kon [2]: 17400 M⁻¹ s⁻¹; Res@3.7 nM [3]: 0.113
